# Target: SARS-CoV-2 nsp12 wild type (SARS-CoV-2) (UniProt P0DTD1)
# Assay: MST
# Settings: complex
substance,measurement,value
"subcomplex of wt nsp7, wt nsp8 and dsRNA (1:2:1) (from UniProt P0DTD1)",EC50,12.6 nM
